Where a chain is given by its changes, count along the chain named.

Assay [1] addresses T1, human beta klotho mutant Y701A on HEK-293T cells (human, UniProt Q86Z14 1-1044).
T1 sequence: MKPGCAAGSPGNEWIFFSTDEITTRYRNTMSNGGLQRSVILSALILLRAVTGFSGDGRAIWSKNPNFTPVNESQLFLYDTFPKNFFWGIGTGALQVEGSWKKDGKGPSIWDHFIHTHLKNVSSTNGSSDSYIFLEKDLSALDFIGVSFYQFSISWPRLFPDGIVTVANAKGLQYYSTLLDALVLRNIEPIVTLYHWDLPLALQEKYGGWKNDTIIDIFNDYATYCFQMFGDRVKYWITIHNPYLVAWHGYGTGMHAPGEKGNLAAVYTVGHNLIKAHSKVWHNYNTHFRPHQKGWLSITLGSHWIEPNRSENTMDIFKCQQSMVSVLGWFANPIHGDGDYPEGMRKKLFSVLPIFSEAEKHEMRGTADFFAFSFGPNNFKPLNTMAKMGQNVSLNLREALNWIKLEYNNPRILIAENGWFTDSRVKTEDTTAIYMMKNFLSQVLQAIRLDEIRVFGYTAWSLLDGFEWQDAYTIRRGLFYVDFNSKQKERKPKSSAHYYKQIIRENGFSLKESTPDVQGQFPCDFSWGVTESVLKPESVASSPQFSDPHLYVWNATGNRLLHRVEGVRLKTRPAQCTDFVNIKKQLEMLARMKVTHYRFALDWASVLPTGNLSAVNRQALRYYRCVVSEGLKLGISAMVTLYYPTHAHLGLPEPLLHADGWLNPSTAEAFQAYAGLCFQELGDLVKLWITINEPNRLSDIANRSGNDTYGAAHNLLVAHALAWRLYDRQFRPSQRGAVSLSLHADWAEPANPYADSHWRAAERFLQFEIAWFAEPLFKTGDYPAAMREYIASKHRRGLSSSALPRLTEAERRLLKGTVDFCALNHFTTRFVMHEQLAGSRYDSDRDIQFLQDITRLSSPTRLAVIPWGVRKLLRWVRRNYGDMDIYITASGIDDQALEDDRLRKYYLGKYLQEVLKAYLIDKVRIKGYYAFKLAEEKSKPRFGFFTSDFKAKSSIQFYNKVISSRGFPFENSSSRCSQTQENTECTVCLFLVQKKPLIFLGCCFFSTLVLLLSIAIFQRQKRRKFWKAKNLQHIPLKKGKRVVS
In words: shotgun alanine mutagenesis, FACS on HEK-293T cells. The protocol: (§1) In order to further identify specific binding residues within human beta klotho KL2 domain, shotgun mutagenesis was used to separately mutate individual residues of the KL2 domain of human beta klotho to an alanine (e.g., residues F508A-L1008A). […] For example, screening of the beta klotho mutant proteins was conducted at a concentration of 0.5 μg/ml for the humanized 5H23 antibody, 1.0 μg/ml for the Fab fragment, and 2.0 μg/ml for a positive control polyclonal anti-beta klotho antibodies.

Assay [2] concerns the target T2, human beta klotho mutant R703A on HEK-293T cells (human, UniProt Q86Z14 1-1044).
T2 sequence: T1 sequence with A701Y, R703A
Described as above. The protocol: as §1

The target of assay [3] is T1, human beta klotho mutant Y701A on …. The assay is described as follows: shotgun alanine mutagenesis, FACS on HEK-293T cells, antibody 0.5 µg/ml. As for the experimental part: as §1
(§2) The resulting mapping identified three specific binding residues, H657, Y701 and R703, which were negative for binding by the humanized 5H23 antibody, but were positive for the control polyclonal anti-beta klotho antibodies. These residues represented amino acids whose side changes made the highest energetic contributions to the antibody-epitope interation as shown in Table 31. The locations of the three identified residues were modeled by showing them (dark spheres) at the equivalent positions on human cytosolic beta-glucosidase (PDB ID #2JFE; Tribolo et al., J. Mol. Biol. 370, 964-975 (2007)), identified by BLAST alignment of the two proteins as shown in FIG. 6.

Assay [4] concerns the target T2, human beta klotho mutant R703A on …. The assay is described as above. The protocol:
as §1, §2

B1: humanized 5H23 antibody (VH SEQ ID NO: 271 and VL SEQ ID NO: 276) (antibody, V domains shown)
VH: QVQLQQSGAEVKKPGASVKVSCKASGYTFTSYDINWVRQAPGQGLEWIGWIYPGDGSTKYNEKFKGKATITRDTSASTAYMELSSLRSEDTAVYFCARSDYYGSRSFAYWGQGTLVTVSS
VL: DIVMTQSPDSLAVSLGERATINCRASKSVSTSGYVYMHWYQQKPGQPPKLLIYLASYLESGVPDRFSGSGSGTDFTLTISSVQAEDVAVYYCQHSRDLTFPFGGGTKLEIK
notes: also called h5H23; h5H23 (Prep 1)
For the molecule B1, the binding result in assay [1] and in assay [2] was “no binding (tested: 0.5 µg/ml)” in each case. Also, the “Binding Reactivity (% WT)” value in assay [3] was 0.64 % WT; in assay [4] it was 1.64 % WT.

The values above are taken from patent US20210030857A1 (NGM BIOPHARMACEUTICALS, published 2021).
